Patent publication US20100323957A1, “NOVEL ASSAY FOR INHIBITORS OF EGFR” (THE REGENTS OF THE UNIVERSITY OF CALIFORNIA THE OFFICE OF …, priority 2007, published 2010)

Assays:
full-length EGFR = target: T1, full-length EGFR (Homo sapiens, UniProt P00533); assay: Cell-based assay of EGFR autophosphorylation, Cos-7 cells co-transfected with EGFR and MIG6; details: co-expression with EGFR, EGF 50 ng/ml, western blot
T1 construct: Cos-7 cells co-transfected with constructs containing full-length EGFR and MIG6; expressed in transfected cells; host or cells: Cos-7
Excerpt: The wild-type and mutant forms of the EGFR kinase domain were expressed and purified using methods known in the art and described in Zhang et al., (2006). The 60-residue MIG6 peptide was expressed in bacteria as a glutathione S-transferase (GST)-fusion protein, purified and treated with the TEV protease to remove the GST-moiety. The wild-type and Y358A mutant MIG6(segments 1-2) peptides were fused to a Trp DLE leader peptide and expressed as inclusion bodies and purified as described. All other MIG6 peptides were produced using solid phase synthesis. […] The binding affinities between the kinase domain and fluorescein-labeled MIG6 peptides were measured by monitoring the change of fluorescence anisotropy during the titration and fitting the data to a single-site binding model. Kinase assays in solution and on vesicle were performed using methods known in the art and described herein. Cell-based inhibition assays were performed using Cos-7 cells co-transfected with constructs containing full-length EGFR and MIG6.
For cell-based assays, Cos-7 cells were co-transfected using Fugene 6 (Roche) with the DNA encoding the N-terminal Flag-tagged EGFR in pcDNA3.1 constructs and the wild-type or mutants of the MIG6 genes with a C-terminal Myc tag (also in pcDNA3.1). Cells were cultured for 36 h after transfection and serum-starved for 12 h. Cells were treated with EGF (50 ng ml^−1) for ˜5 min at 37° C., lysed and subjected to western blot analyses. The levels of total EGFR, EGFR autophosphorylation and MIG6 were probed using the anti-EGFR antibody SC03 (Santa Cruz), anti-phosphotyrosine antibody 4G10 (Upstate) and an anti-Myc antibody (Cell Signalling), respectively.

[1] = target: T2, wild-type EGFR kinase domain in solution (Homo sapiens, UniProt P00533); assay: Kinase assay in solution, wild-type kinase domain (basal activity); assay type: biochemical; details: result in words
T2 construct: DNA encoding residues 672-998 of human EGFR was cloned into pFAST BAC HT; made in house; host or cells: Sf9 insect cells (baculovirus)
Protocol: (§1) Kinase assays were performed using methods known in the art and described herein. The substrate peptide was kept at 1 mM in all the experiments. The reported rates are the initial velocities normalized by the kinase concentrations. The wild-type kinase concentrations in the vesicle-based and solution-based assays were […] respectively.
(§2) A continuous enzyme-coupled kinase assay was performed to measure the kinase activity of the proteins as described in Barker et al., ((1995) Biochemistry, Vol. 34(54): 14843-51), with modifications, as described herein. The ATP concentration was kept to 0.5 mM.
(§3) The buffer used contained 10 mM MgCl2, 20 mM Tris, and pH 7.5. […] The substrate peptide was derived from the region spanning Y1173 in EGFR ([…]). All proteins used in this assay contained the N-terminal (His)6 tag unless otherwise noted.
The protein concentrations of the EGFR kinase domain used in the assay ranged from 3.5 to 14 μM. The total concentration of the DOGS-NTA-Ni in the bulk solution was kept to 12.5 μM in all assays with DOG-NTA-Ni-containing vesicles. For assays of the kinase domain attached to vesicles, the protein and vesicles were preincubated at 4° C. for ˜5 min.

[2] = target: T3, EGFR kinase domain L834R mutant (Homo sapiens, UniProt P00533, L858R); assay: Kinase assay in solution, L834R mutant kinase domain; assay type: biochemical; details: for IC50: L834R at 200 nM, MnCl2 10 mM, read-out: IC50 for inhibition of L834R mutant kinase domain
T3 construct: DNA encoding residues 672-998 of human EGFR was cloned into pFAST BAC HT; made in house; host or cells: Sf9 insect cells (baculovirus)
Protocol: To test the role of segment 2, we produced a longer peptide (residues 336-412, MIG6(segments 1-2)), and analyzed its effect on a variant of the EGFR kinase domain that contains a mutation (L834R) that renders it constitutively active in the absence of concentration on vesicles. MIG6(segments 1-2) inhibits this mutant kinase domain with an IC50 value of ˜200 nM (FIG. 25a). MIG6(segments 1-2) bearing a mutation within segment 1 (Y358A) inhibited L834R much less efficiently (IC50˜5 μM).
as §1, §2, §3

| Molecule | EGF-induced autophosphorylation of EGFR (full-length EGFR) | inhibition of basal activity of wild-type kinase domain in solution [1] | IC50 [2] | inhibition of L834R mutant kinase domain ([2]; result in words) |
| --- | --- | --- | --- | --- |
| MIG6(M346A): full-length MIG6 with M346A mutation in segment 1, co-expressed in cells (protein, left off: small tags and cut ends, full-length MIG6 with M346A mutation in segment 1, co-expressed in cells) MSIAGVAAQEIRVPLKTGFLHNGRAMGNMRKTYWSSRSEFKNNFLNIDPITMAYSLNSSAQERLIPLGHASKSAPMNGHCFAENGPSQKSSLPPLLIPPSENLGPHEEDQVVCGFKKLTVNGVCASTPPLTPIKNSPSLFPCAPLCERGSRPLPPLPISEALSLDDTDCEVEFLTSSDTDFLLEDSTLSDFKYDVPGRRSFRGCGQINYAYFDTPAVSAADLSYVSDQNGGVPDPNPPPPQTHRRLRRSHSGPAGSFNKPAIRISNCCIHRASPNSDEDKPEVPPRVPIPPRPVKPDYRRWSAEVTSSTYSDEDRPPKVPPREPLSPSNSRTPSPKSLPSYLNGVAPPTQSFAPDPKYVSSKALQRQNSEGSASKVPCILPIIENGKKVSSTHYYLLPERPPYLDKYEKFFREAEETNGGAQIQPLPADCGISSATEKPDSKTKMDLGGHVKRKHLSYVVSP | abolishes this effect | – | – | – |
| MIG6(F352A): full-length MIG6 with F352A mutation in segment 1, co-expressed in cells (protein, left off: small tags and cut ends, full-length MIG6 with F352A mutation in segment 1, co-expressed in cells) MSIAGVAAQEIRVPLKTGFLHNGRAMGNMRKTYWSSRSEFKNNFLNIDPITMAYSLNSSAQERLIPLGHASKSAPMNGHCFAENGPSQKSSLPPLLIPPSENLGPHEEDQVVCGFKKLTVNGVCASTPPLTPIKNSPSLFPCAPLCERGSRPLPPLPISEALSLDDTDCEVEFLTSSDTDFLLEDSTLSDFKYDVPGRRSFRGCGQINYAYFDTPAVSAADLSYVSDQNGGVPDPNPPPPQTHRRLRRSHSGPAGSFNKPAIRISNCCIHRASPNSDEDKPEVPPRVPIPPRPVKPDYRRWSAEVTSSTYSDEDRPPKVPPREPLSPSNSRTPSPKSLPSYLNGVMPPTQSAAPDPKYVSSKALQRQNSEGSASKVPCILPIIENGKKVSSTHYYLLPERPPYLDKYEKFFREAEETNGGAQIQPLPADCGISSATEKPDSKTKMDLGGHVKRKHLSYVVSP | abolishes this effect | – | – | – |
| MIG6(Y358A): full-length MIG6 with Y358A mutation in segment 1, co-expressed in cells (protein, left off: small tags and cut ends, full-length MIG6 with Y358A mutation in segment 1, co-expressed in cells) MSIAGVAAQEIRVPLKTGFLHNGRAMGNMRKTYWSSRSEFKNNFLNIDPITMAYSLNSSAQERLIPLGHASKSAPMNGHCFAENGPSQKSSLPPLLIPPSENLGPHEEDQVVCGFKKLTVNGVCASTPPLTPIKNSPSLFPCAPLCERGSRPLPPLPISEALSLDDTDCEVEFLTSSDTDFLLEDSTLSDFKYDVPGRRSFRGCGQINYAYFDTPAVSAADLSYVSDQNGGVPDPNPPPPQTHRRLRRSHSGPAGSFNKPAIRISNCCIHRASPNSDEDKPEVPPRVPIPPRPVKPDYRRWSAEVTSSTYSDEDRPPKVPPREPLSPSNSRTPSPKSLPSYLNGVMPPTQSFAPDPKAVSSKALQRQNSEGSASKVPCILPIIENGKKVSSTHYYLLPERPPYLDKYEKFFREAEETNGGAQIQPLPADCGISSATEKPDSKTKMDLGGHVKRKHLSYVVSP | abolishes this effect | – | – | – |
| MIG6(segments 1-2): longer MIG6 peptide, residues 336-412, expressed as Trp DLE fusion; M346 mutated to leucine (protein) peptide: KSLPSYLNGVLPPTQSFAPDPKYVSSKALQRQNSEGSASKVPCILPIIENGKKVSSTHYYLLPERPPYLDKYEKFFR | – | much less potent | ~0.2 µM | much more strongly |
| MIG6(segments 1-2) Y358A: MIG6 residues 336-412 bearing a mutation within segment 1 (Y358A) (protein) peptide: KSLPSYLNGVLPPTQSFAPDPKAVSSKALQRQNSEGSASKVPCILPIIENGKKVSSTHYYLLPERPPYLDKYEKFFR | – | does not show any inhibition | ~5 µM | – |
